Here are results for one molecule from patent EP4722228A1 (The University of Tokyo, dated 2024).

Bridge positions count the residues as written; N and C are the ends. Square brackets hold non-standard residues; d marks the D form. Ends that are not written are not given here.

For test [1], the target named is T1, Recombinant Rat MuSK Fc Chimera Protein (catalog number: 9847-MK-050, R&D Systems) (rat, UniProt Q62838 22-494).
T1 construct: Bought reagent; also called Fc-tagged rat MuSK; not shown: Fc protein of the bought chimera
T1 sequence (looked up): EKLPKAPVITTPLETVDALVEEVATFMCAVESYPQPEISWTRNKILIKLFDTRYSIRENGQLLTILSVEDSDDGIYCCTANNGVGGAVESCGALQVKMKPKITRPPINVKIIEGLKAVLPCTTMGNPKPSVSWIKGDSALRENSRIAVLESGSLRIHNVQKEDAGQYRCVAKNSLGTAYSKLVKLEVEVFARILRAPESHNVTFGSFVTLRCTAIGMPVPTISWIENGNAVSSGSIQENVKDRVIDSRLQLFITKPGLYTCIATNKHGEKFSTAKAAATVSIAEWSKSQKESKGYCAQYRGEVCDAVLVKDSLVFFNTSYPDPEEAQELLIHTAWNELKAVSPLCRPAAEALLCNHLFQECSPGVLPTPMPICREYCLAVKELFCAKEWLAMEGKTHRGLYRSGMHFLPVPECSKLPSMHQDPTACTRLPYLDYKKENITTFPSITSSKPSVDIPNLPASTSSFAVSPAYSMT
Briefly: SPR (Biacore T200), Fc-tagged rat MuSK on Protein G/A chip, 1:1 fit. For orientation: SPR reads the build-up and loss of mass on a sensor chip optically.

The target of test [2] is Fc-tagged mouse MuSK extracellular domain (mouse). As to the kind of experiment: SPR (Biacore T200), Fc-tagged mouse MuSK on Protein G/A chip, 1:1 fit.
Fc-tagged mouse MuSK extracellular domain (mouse), sequence (chain, as listed by the source limits assumed): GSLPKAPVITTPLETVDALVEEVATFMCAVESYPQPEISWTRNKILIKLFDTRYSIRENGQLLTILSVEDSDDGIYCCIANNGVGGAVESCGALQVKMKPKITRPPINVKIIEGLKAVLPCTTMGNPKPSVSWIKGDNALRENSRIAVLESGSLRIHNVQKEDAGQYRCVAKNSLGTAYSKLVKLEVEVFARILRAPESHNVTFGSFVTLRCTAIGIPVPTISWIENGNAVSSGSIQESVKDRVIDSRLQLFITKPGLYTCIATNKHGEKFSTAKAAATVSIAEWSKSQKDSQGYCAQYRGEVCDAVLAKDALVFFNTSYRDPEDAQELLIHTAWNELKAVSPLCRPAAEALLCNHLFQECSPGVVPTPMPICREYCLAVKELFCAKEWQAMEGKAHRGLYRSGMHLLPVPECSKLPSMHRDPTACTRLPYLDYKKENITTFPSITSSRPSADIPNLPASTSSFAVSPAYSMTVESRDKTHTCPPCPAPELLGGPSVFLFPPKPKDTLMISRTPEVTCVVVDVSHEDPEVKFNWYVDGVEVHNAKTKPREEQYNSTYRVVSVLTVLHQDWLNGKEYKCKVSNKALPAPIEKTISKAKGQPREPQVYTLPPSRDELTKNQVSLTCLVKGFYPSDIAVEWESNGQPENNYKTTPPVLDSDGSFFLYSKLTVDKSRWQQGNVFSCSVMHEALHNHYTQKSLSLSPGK

B1: Homodimer of MuSK7 with an introduced palmitoyl group (MuSK7-pal) (peptide)
peptide: {CH2CO}-[dY]PSYHTNVVASLKRC
modifications: thioether N-15; also: homodimer: two peptides condensed via C-terminal Cys carboxyl with linking unit bearing palmitic acid
notes: also called Dimeric peptide
One may read the Kd as the free concentration of one partner at which half of the binding sites on the other are occupied at equilibrium, for simple one-to-one binding. For the molecule B1, the Kd in test [1] was 2 nM; in test [2], 8.8 nM.
